The experiment deals with endogenous optineurin (rat (endogenous in RGC5)) (UniProt Q8R5M4). The experiment in a line: native gel or EMSA; native blue gel electrophoresis (NativePAGE Novex Bis-Tris gel) of lysates in IP buffer from RGC5 cells or RGC5 cells transfected with pTarget-FLAG-OPTN, non-reducing; Western blot with anti-C-terminal optineurin or anti-FLAG. For orientation: A gel shift assay detects complexes by their altered migration in electrophoresis.

In general, stoichiometry N refers to the number of molecules, sites or subunits per partner or assembly. “endogenous optineurin (from UniProt Q8R5M4 1-585) (natural protein)” yielded a stoichiometry N of 6.

The values are drawn from paper PMC2820081.
